Measured values from article doi:10.1101/2024.10.18.618978v3.

How the values were obtained:
[1] = substrate: NCCCNCCCCNCCCN; assay: colorimetric DTNB SSAT assay; type: biochemical, Staphylococcus aureus; conditions: 1 mM AcCoA, pH 7.5, 37 °C, approximate value given in Methods
[2] = substrate: NCCCNCCCCNCCCN; assay: purified protein; conditions: 1 mM AcCoA, pH 7.5, 37 °C

Row | Protein | Km [1] [µM] | Km ([2]; Michaelis-Menten fit) [µM] | K0.5 ([2]; allosteric sigmoidal fit) [µM]
1 | PaiASa (Staphylococcus aureus subsp. aureus USA300) (protein) MAGIIKEISEQNASELVELATRTFYDTFGSYYDDKDFDQFFKDNYTVEKFTQEINHVDSFHYFYQEDGANVGYIKMNINSAQTEEMGETYLEVQRIYFLKDFQGGGRGSQLIELAEKIAQEHNKHKIWLGVWEHNPRAQAFYKRHGFKVVGEHHFQTGDVTDTDLIMEKEL | 2000 |  | 
2 | SpeG (Staphylococcus aureus subsp. aureus USA300) (protein) MKLRALEYSDLLFVHELNNEYSIMSYWFEEPYESLTELQHLFDKHLLDESERRFIVEDENQVVGIVELVEINYIHRNCEIQIIIKPEFSGKGYAKFAFEKAIIYAFNILNMHKIYLYVDADNKKAIHIYESQGFKTEGLLKEQFYTKGKYKDAYFMSLLKSEYIL |  | 1312 ± 348.1 | 757.5 ± 63.35
